The data set deals with the molecule itself. The data set is described as follows: analytical size-exclusion chromatography; self-association (homodimer) of the purified catalytic domain.

B1: recombinant catalytic domain of human phosphodiesterase 4-D3 (PDE4-D3), residues 253-580 of SEQ. ID No. 1, after removal of the N-terminal 6x-histidine tag … (enzyme)
chain: GAMDPTEQEDVLAKELEDVNKWGLHVFRIAELSGNRPLTVIMHTIFQERDLLKTFKIPVDTLITYLMTLEDHYHADVAYHNNIHAADVVQSTHVLLSTPALEAVFTDLEILAAIFASAIHDVDHPGVSNQFLINTNSELALMYNDSSVLENHHLAVGFKLLQEENCDIFQNLTKKQRQSLRKMVIDIVLATDMSKHMNLLADLKTMVETKKVTSSGVLLLDNYSDRIQVLQNMVHCADLSNPTKPLQLYRQWTDRIMEEFFRQGDRERERGMEISPMCDKHNASVEKSQVGFIDYIVHPLWETWADLVHPDAQDILDTLEDNREWYQSTIPQSP
notes: The limits 24-357 come from the claims, which define the protein of the Rolipram complex this way; The purified protein was buffer-exchanged with a 2-molar excess of the small molecule Rolipram; Expressed in Hi5 insect cells; also called PDE4D3 catalytic domain; purified PDE4-D3
Take B1: the binding result is on record as “binds”.

The values are drawn from US7556950 (Takeda / Millennium, dated 2009).
